Experimental data from patent US20240408248A1, “GRANZYME B-TARGETING COMPLEX, RADIOPHARMACEUTICAL, PREPARATION METHOD THEREFOR AND USE THEREOF” (priority 2021, published 2024).

Assays:
[1] = biological target: T1, tumor Granzyme B (Mus musculus, UniProt P04187); experiment: PET/CT imaging in MC38 tumor-bearing mice, comparison with radiopharmaceuticals with similar structures; format: in vivo, C57 mice; conditions: 7.4 MBq via tail vein, 0.5 h after injection, compared with the other three comparative radiopharmaceuticals
T1 construct: from tissue; host or cells: MC38 tumors in living C57 mice
T1 sequence (P04187 21-247): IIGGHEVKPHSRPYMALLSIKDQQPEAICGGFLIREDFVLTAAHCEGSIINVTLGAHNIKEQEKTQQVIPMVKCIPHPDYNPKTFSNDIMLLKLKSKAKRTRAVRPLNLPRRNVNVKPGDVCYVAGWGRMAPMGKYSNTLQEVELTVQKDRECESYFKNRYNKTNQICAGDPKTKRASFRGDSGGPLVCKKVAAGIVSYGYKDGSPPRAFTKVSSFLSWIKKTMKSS
Protocol: In order to compare the in vivo nuclear medicine imaging advantages of the Granzyme B-targeting complex of the present invention, three Granzyme B-targeting complexes with similar structures are prepared by a similar synthesis method. All of them were labeled with ^68Ga after DOTA coupling to obtain the corresponding Granzyme B-targeting radioactive compounds. 7.4 MBq of the freshly prepared ^68Ga-labeled complex was taken and injected into female C57 mice bearing MC38 tumors via the tail vein. After injection for 0.5 h, the animals were anesthetized with isoflurane for PET/CT imaging. The result is illustrated in FIG. 11, showing that the ^68Ga-labelled DOTA complex of the present invention had optimal tumor Granzyme B uptake and low normal tissue (e.g. gastrointestinal tract) uptake compared with the other three comparative radiopharmaceuticals.

[2] = biological target: T2, Granzyme B in 4T1 tumors (Mus musculus, UniProt P04187); parameters: species or system BALB/c mice; conditions: in vivo
T2 construct: from tissue; host or cells: 4T1 tumors in living BALB/c mice
T2 sequence (P04187 21-247): T1 sequence (P04187 21-247)
Protocol: (§1) MC38 and 4T1 tumor cells were inoculated subcutaneously in the right axilla of C57 and BALB/c mice, respectively, to establish immunotherapy pseudo-progression and true-progression mouse models. 200 μg of the anti-PD-1 antibody and anti-CTLA-4 antibody were injected intraperitoneally for a total of 3 times on days 0, 3 and 6, respectively. […] After injection for 0.5 h, the animals were anesthetized with isoflurane for PET/CT imaging. The changes of the tumor size in MC38 and 4T1 tumor-bearing mice were measured by a vernier caliper.

[3] = biological target: T3, Granzyme B in MC38 tumors (Mus musculus, UniProt P04187); parameters: species or system C57 mice; conditions: in vivo
T3 construct: from tissue; host or cells: MC38 tumors in living C57 mice
T3 sequence (P04187 21-247): T1 sequence (P04187 21-247)
Protocol: as §1

[4] = biological target: T1, tumor Granzyme B; experiment: SPECT/CT imaging of tumor Granzyme B in MC38 tumor-bearing mice; format: in vivo, C57 mice; conditions: 18.5 MBq via tail vein, 0.5 h after injection
Protocol: SPECT imaging of tumor Granzyme B with a ^99mTc-labeled HYNIC complex. 18.5 MBq of the freshly prepared ^99mTc-labeled HYNIC complex was taken and injected into female C57 mice bearing MC38 tumors in the right axilla via the tail vein. After injection for 0.5 h, the animals were anesthetized with isoflurane for SPECT/CT imaging.

CC[C@H](C)[C@H](NC(=O)Cc1cccc(CNC(=O)C[C@H](NC(=O)C[C@H](NC(=O)CN2CCN(CC(=O)O)CCN(CC(=O)O)CCN(CC(=O)O)CC2)C(=O)O)C(=O)O)c1)C(=O)N[C@H]1CCc2cccc3c2N(C1=O)[C@H](C(=O)NCc1cn[nH]n1)C3 [^68Ga-labeled DOTA complex, metal not drawn]
normal tissue (e.g. gastrointestinal tract) uptake [1]: low
tumor uptake on day 6 versus day 0 [2]: no significant difference
tumor uptake at day 6 versus day 0 [3]: significantly higher than that at day 0

CC[C@H](C)[C@H](NC(=O)Cc1cccc(CNC(=O)C[C@H](NC(=O)C[C@H](NC(=O)c2ccc(NN)nc2)C(=O)O)C(=O)O)c1)C(=O)N[C@H]1CCc2cccc3c2N(C1=O)[C@H](C(=O)NCc1cn[nH]n1)C3 [^99mTc-labeled HYNIC complex, metal not drawn]
uptake value in MC38 tumors (SPECT) [4]: good uptake value
